Laboratory results reported in US8637452B2, “Water soluble membrane proteins and methods for the preparation and use thereof” (Massachusetts Institute of Technology, priority 2011, dated 2014).

Molecular target: T1, SDF1α (Homo sapiens, UniProt P61073, F172Y/F264Y/F293Y/F304Y/F36Y/F49Y/F93Y/I162T/I169T/I173T/I243T/I257T/I286T/I300T/I39T/I53T/I89T/L165Q/L246Q/L253Q/L290Q/L297T/L301Q/L50Q/L86Q/V242T/V82T/V96T/V99T)
T1 construct: HUMAN CXCR4 QTY; made in house; host or cells: cell-free production
Test: Surface Plasmon Resonance analysis of CXCR4 QTY (Biacore, receptor captured on 1D4 Ab, SDF1α injected)
Format: binding
Conditions: SPR, Biacore 2000, CM5 chip; SDF1α 0-1 μM; HBST with 0.2% BSA and 0.2% Fos-Choline-14
Procedure: Human CXCR4 and our CXCR4 QTY proteins obtained from cell-free production and purified with affinity beads were captured in different flow cells on a Biacore CM5 chip with immobilized 1D4 Antibody (Ab) in a Biacore 2000 instrument. Different concentrations of SDF1α, the native ligand for hCXCR4 receptor, were injected over the surface to allow interaction with the receptors.
Biacore CM5 chips were activated with 1-Ethyl-3-[3-dimethylaminopropyl]carbodiimide hydrochloride and N-hydroxysuccinimide according to the manufacturer's protocol prior to a 7 minute injection at 5 μl/min of 1D4 Ab to flow cells 2-4 at 70 μg/ml followed by deactivating of the surfaces in all the 4 flow cells with a short Ethanolamine pulse. The immobilization level of 1D4 Ab range from 8000-25000 Response units (RU).
CXCR4 and CXCR4 QTY mutant are captured by the 1D4 Ab on the CM5 chip by injecting a 0.1 mg/m1 sample of the protein to a single flow cell at 5 μl/min during 15 min with both sample and running buffer containing 0.2% Fos-Choline-14 detergent. The receptors were captured to a level of 800-3000 RU.
SDF1α were injected over all flow cells to allow interaction with both the receptors and flow cell one is used as a reference cell without any immobilized protein. […]

B1: CXCR4 QTY: Water-soluble human CXCR4 variant with 29 QTY mutations in the seven transmembrane helices (SEQ ID NO: 10) (protein)
chain: MEGISIYTSDNYTEEMGSGDYDSMKEPCFREENANYNKTFLPTIYSIIYQTGTVGNGLVILVMGYQKKLRSMTDKYRLHLSTADLQFVTTLPYWATDATANWYFGNFLCKAVHVIYTVNLYSSVLILAFISLDRYLAIVHATNSQRPRKLLAEKVVYVGVWTPAQLLTTPDYTFANVSEADDRYICDRFYPNDLWVVVFQFQHIMVGLILPGIVILSCYCIIISKLSHSKGHQKRKALKTTTTLIQAFFACWQPYYTGISIDSYILLEIIKQGCEFENTVHKWISTTEAQAFYHCCTNPTQYAYLGAKFKTSAQHALTSVSRGSSLKILSKGKRGGHSSVSTESESSSSFHS
B1 was tested, and the “ligand binding (SDF1α)” value was “shows ligand binding”.
